Results on 5 molecules are retold here after patent US20190374506A1 (BETH ISREAL DEACONESS MEDICAL CENTER, published 2019).

Changes are numbered by the printed parent chain. In names and notes the source's numbering stands.

For series [1], the target named is T1, WW domain containing E3 ubiquitin protein ligase 1 (WWP1) (human, UniProt Q9H0M0 1-922, limits assumed).
T1 construct: also called endogenous WWP1; WW domain-containing protein-1
The series can be described thus: immunoprecipitation of exogenous PTEN from DU145 cells, mass spectrometry (FIG. 2A). An excerpt: (§1) FIG. 2A is a Western blot. Lysates from DU145 cells transfected with HA-PTEN were immunoprecipitated with an anti-PTEN antibody followed by mass-spectrometric peptide sequencing. WWP1 and NEDD4-1 were identified.
(§2) In order to identify the E3 ligases that induce PTEN atypical K27-linked poly-ubiquitination, exogenous PTEN was immunoprecipitated from DU145 cells, followed by identification of the proteins that interacted with PTEN by mass spectrometry (FIG. 2A; FIG. 18).

The target of series [2] is T2, ATP dependent RNA helicase A (human (endogenous protein of DU145 …, UniProt Q08211)).
T2 construct: endogenous, identified by mass spectrometry
T2 sequence (Q08211 whole entry): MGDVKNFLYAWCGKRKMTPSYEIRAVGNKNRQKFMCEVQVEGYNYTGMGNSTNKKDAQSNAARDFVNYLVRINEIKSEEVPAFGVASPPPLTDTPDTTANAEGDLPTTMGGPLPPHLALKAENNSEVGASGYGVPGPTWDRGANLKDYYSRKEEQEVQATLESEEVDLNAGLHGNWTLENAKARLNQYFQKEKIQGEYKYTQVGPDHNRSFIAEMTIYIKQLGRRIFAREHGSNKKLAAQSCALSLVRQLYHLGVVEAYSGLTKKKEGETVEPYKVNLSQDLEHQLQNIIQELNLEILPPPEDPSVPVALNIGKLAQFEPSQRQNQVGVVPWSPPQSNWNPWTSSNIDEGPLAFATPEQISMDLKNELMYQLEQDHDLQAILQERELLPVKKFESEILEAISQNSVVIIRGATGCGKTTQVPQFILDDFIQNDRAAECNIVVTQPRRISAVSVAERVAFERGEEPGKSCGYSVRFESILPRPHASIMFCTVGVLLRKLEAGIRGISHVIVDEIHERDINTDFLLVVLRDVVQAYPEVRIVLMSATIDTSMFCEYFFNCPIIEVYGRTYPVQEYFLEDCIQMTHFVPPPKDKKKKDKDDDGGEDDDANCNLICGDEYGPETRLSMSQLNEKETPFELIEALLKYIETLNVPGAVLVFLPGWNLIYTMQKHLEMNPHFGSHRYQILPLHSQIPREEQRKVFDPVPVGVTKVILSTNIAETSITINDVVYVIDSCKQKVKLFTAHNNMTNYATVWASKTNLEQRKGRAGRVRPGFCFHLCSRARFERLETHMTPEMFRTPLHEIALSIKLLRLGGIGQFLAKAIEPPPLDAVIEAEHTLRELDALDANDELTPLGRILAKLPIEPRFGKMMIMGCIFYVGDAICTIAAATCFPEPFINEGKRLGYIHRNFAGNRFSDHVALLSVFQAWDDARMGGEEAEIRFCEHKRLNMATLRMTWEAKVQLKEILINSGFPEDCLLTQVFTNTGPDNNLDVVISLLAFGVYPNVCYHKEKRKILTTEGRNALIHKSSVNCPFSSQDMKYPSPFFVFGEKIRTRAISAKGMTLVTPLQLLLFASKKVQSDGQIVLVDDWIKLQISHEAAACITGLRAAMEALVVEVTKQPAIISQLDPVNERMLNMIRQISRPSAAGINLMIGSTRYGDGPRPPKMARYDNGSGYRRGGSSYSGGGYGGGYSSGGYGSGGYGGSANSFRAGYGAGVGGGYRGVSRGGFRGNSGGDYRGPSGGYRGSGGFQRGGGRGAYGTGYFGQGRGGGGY
The series can be described thus: anti-PTEN immunoprecipitation from DU145 cells transfected with HA-PTEN, SDS-PAGE, mass-spectrometric peptide sequencing of the bands (association in the precipitate).
Text: as §1, §2

Series [3] concerns the target T3, Poly [ADP-ribose] polymerase 1 (human (endogenous protein of DU145 …, UniProt P09874)).
T3 construct: endogenous, identified by mass spectrometry
Described as above.
Text: as §1, §2

For series [4], the target named is Isoform 2 of Telomere-associated protein RIF1. The series is described as above.
Chain of Isoform 2 of Telomere-associated protein RIF1 (chain, as listed by the source limits assumed): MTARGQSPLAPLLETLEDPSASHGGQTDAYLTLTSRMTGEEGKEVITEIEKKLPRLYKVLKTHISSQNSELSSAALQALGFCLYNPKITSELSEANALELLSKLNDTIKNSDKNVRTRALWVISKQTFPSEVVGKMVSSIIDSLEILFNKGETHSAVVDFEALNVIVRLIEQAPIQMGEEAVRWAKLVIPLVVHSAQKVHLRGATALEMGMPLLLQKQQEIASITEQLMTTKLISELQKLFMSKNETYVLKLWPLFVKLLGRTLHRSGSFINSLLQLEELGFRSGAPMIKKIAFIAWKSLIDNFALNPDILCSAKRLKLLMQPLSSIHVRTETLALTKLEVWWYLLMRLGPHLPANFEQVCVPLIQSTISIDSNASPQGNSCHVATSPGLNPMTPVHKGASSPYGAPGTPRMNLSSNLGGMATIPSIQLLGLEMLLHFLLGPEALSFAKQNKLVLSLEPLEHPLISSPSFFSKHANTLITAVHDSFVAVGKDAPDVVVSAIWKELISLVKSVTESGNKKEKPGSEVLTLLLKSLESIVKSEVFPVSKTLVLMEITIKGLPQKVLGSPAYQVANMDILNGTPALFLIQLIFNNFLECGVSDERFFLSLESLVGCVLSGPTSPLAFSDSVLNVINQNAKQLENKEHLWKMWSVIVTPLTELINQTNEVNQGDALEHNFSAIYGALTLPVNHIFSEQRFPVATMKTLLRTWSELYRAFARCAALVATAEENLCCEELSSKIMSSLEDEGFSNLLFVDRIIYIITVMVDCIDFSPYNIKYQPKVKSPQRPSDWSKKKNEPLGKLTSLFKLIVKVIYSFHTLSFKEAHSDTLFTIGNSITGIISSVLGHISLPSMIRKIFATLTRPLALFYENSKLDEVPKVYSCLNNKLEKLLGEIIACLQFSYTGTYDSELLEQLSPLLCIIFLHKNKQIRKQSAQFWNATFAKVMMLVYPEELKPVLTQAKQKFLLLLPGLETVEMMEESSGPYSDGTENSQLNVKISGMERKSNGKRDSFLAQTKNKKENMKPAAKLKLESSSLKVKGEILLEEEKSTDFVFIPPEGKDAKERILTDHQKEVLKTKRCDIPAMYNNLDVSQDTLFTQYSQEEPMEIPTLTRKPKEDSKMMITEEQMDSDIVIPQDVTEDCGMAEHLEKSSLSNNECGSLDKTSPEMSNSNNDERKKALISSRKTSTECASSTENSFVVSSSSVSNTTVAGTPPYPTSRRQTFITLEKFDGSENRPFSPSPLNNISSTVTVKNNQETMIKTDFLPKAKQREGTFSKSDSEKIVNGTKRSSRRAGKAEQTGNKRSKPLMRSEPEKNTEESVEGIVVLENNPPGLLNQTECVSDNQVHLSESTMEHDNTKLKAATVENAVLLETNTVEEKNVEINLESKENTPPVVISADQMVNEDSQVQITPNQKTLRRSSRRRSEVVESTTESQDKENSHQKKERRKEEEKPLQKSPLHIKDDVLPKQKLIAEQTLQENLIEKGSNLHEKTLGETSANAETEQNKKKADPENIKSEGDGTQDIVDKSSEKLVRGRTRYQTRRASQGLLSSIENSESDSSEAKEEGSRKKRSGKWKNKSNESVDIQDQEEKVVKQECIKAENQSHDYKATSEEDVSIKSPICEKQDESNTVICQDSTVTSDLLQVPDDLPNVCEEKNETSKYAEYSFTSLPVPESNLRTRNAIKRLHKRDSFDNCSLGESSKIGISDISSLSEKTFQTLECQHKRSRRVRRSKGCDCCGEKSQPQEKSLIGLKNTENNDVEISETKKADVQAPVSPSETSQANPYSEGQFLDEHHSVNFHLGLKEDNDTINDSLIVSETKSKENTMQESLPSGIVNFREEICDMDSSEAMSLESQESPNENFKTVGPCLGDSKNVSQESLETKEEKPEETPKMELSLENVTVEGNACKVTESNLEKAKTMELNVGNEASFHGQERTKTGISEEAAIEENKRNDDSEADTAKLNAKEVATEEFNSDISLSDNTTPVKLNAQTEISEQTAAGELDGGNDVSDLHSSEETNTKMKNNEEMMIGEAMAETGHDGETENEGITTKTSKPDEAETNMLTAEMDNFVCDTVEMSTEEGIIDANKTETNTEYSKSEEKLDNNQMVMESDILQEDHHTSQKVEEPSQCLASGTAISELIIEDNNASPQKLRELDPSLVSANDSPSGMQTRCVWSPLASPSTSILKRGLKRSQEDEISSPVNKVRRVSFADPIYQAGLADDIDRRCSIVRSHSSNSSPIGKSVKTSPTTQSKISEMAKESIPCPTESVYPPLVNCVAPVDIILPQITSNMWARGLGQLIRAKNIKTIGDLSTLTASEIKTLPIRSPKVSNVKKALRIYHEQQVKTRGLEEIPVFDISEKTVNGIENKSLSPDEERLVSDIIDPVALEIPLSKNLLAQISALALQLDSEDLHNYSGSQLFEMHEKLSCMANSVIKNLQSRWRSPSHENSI
Text: as §1, §2

In series [5] the target is T4, Sperm-associated antigen 5 (human (endogenous protein of DU145 …, UniProt Q96R06)).
T4 construct: endogenous, identified by mass spectrometry
T4 sequence (looked up): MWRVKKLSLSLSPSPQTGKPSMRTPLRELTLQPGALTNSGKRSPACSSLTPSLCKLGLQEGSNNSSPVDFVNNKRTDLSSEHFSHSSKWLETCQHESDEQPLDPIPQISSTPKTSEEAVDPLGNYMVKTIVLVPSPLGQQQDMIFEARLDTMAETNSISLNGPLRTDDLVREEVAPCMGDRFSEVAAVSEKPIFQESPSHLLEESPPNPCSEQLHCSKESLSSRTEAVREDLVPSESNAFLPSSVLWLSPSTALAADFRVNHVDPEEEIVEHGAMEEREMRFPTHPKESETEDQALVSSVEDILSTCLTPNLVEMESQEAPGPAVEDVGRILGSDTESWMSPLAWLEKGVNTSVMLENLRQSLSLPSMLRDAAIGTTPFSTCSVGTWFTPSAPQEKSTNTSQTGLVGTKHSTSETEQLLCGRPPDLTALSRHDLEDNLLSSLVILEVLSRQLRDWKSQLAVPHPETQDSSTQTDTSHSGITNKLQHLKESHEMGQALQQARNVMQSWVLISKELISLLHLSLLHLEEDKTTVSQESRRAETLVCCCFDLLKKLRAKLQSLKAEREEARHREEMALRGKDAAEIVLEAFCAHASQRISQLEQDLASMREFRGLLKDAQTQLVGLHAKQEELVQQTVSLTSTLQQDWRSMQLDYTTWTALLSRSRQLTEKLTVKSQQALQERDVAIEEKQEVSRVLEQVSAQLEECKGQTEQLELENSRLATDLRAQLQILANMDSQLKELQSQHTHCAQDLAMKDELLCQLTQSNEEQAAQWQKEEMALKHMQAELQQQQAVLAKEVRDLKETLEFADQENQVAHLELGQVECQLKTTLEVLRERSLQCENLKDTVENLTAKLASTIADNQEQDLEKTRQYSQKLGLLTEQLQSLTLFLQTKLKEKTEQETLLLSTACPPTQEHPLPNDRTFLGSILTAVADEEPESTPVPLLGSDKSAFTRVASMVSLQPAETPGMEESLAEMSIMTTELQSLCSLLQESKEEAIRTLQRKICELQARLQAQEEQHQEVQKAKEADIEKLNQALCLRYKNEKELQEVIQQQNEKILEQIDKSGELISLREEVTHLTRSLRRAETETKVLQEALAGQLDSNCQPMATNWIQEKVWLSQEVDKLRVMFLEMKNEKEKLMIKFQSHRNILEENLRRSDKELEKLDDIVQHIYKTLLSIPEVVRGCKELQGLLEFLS
The series is described as above.
Text: as §1, §2

The target in series [6] is T5, Flag-WWP1 (Homo sapiens (Human), UniProt Q9H0M0 1-922).
T5 construct: also called full-length Flag-WWP1; recombinant Flag-WWP1; not shown: Flag tag
Briefly: reciprocal co-immunoprecipitation from 293 cells: IP HA / WB Flag and IP Flag / WB HA.

Series [7] deals with the molecule itself. Briefly: gel filtration of HEK293 lysate, fractions on SDS-PAGE, anti-Myc blot. As for the experimental part: 293 cells were transfected with the indicated expression vectors. After 24 hours, cells were washed with PBS, lysed and filtered through a 0.45 μm syringe filter. 500 μl of lysate (4 mg/ml) was loaded into a Superdex200 10/300 GL column (GE Lifesciences Cat. No. 17-5175-01). Tandem columns gel filtrations were performed by further attaching a series Superdex 75 10/300 GL column (GE Lifesciences Cat. No. 17-5174-01). Samples were separated in a Superdex75 column first, followed by a Superdex 200 column. Chromatography was performed by using anAKTA FPLC (GE Lifesciences Cat. No. 18-1900-26), and protein complexes were resolved and eluted with lysis buffer at 0.5 ml/minute, 500 μl per fraction. 40 μl aliquots of each fraction were separated by SDS-PAGE and western blot analysis was performed with the indicated antibodies. Before sample separation, molecular-weight resolution of the columns was estimated by running the Gel Filtration Calibration Kit (GE Lifesciences, #28-4038-42) to determine retention times on Coomassie-stained SDS-PAGE protein gels.

Series [8] has as its target T5, Flag-WWP1. Briefly: co-immunoprecipitation: IP Flag, WB PTEN.
Series [9] concerns the target T6, Flag-WWP1 ΔWW domain (deletion 341-547) (Homo sapiens (Human), UniProt Q9H0M0 1-922).
T6 construct: The two kept ranges are counted on the 922-residue WWP1 entry; not shown: Flag tag
T6 sequence: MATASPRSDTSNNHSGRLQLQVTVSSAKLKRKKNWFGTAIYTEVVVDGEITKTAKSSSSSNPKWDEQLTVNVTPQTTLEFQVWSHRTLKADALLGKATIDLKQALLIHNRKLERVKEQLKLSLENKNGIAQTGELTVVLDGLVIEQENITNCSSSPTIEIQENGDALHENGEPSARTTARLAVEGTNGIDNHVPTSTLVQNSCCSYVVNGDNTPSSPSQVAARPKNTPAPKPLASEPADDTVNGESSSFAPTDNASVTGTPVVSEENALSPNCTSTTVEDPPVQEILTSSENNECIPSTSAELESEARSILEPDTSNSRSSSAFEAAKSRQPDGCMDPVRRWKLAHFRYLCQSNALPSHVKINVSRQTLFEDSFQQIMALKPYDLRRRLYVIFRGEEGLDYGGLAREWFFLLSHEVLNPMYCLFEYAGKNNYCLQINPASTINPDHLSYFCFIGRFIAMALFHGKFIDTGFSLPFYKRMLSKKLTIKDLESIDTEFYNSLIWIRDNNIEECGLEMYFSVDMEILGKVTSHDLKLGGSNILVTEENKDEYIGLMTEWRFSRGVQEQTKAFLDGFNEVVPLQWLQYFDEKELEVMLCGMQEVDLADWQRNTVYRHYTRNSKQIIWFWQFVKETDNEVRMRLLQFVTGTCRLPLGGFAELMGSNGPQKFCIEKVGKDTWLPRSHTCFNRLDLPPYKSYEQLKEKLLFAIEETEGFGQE
The series can be described thus: co-immunoprecipitation from 293 cells: IP Flag, WB PTEN. As to the method:
Lysates of 293 cells transfected with indicated constructs were analysed by immunoprecipitation and/or western blot with indicated antibodies.
Western Blotting and Immunoprecipitation. For western blotting, cells were lysed in RIPA buffer (Boston BioProducts) supplemented with protease (Roche) and phosphatase (Roche) inhibitor. Proteins were separated on NuPAGE 4-12% Bis-Tris gradient gels (Invitrogen), transferred to polyvinylidine difluoride membranes (Immobilon P, Millipore) and the blots were probed with the indicated antibodies. For immunoprecipitation, PC3, 293T and MEF cells were transfected with the indicated expression vectors by using LIPOFECTAMIN 2000 (Life Technologies). 24 hours after transfection, cells were lysed in RIPA buffer with protease (Roche) and phosphatase (Roche) inhibitor. 500 μg of total lysates were pre-cleared for 30 minutes at 4° C., and then immunoprecipitated with anti-Myc (Cell Signaling Technology 9B11, 1:500), or anti-PTEN (Cell Signaling Technology 9559, 1:500) antibody overnight at 4° C. The Protein-A or Protein-G sepharose beads (GE Healthcare) were then added and incubated for another 2 hours. The immunoprecipitates were washed with RIPA buffer three times. […]

T3 sequence (P09874 2-1014 limits assumed): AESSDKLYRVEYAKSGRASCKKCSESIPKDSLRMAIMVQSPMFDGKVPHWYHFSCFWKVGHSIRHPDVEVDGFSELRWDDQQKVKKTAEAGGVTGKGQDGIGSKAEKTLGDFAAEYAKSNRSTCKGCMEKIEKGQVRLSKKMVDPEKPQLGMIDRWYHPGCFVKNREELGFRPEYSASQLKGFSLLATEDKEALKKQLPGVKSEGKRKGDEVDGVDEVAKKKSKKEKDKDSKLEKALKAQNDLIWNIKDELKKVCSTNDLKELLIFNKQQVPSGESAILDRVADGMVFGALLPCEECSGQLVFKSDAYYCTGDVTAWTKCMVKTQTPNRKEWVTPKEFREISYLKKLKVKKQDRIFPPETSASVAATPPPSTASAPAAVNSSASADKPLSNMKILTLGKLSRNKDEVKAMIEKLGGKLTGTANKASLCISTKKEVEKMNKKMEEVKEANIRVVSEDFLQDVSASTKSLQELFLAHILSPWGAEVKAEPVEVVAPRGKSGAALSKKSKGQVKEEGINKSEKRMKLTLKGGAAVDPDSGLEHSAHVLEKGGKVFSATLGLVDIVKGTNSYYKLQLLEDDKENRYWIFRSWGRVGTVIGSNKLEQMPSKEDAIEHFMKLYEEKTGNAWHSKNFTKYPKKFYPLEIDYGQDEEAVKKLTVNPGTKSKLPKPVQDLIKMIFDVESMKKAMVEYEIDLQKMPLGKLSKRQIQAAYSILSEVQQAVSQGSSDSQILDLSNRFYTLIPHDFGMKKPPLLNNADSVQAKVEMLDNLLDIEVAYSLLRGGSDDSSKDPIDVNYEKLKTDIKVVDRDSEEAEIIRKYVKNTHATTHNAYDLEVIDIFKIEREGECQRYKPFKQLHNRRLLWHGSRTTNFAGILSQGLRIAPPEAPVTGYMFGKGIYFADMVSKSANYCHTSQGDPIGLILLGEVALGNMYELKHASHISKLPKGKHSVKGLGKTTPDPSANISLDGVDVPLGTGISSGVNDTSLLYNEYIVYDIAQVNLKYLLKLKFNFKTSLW

B1: HA-PTEN (enzyme)
chain: not shown
notes: Expressed in DU145 cells and immunoprecipitated with anti-PTEN antibody for mass spectrometry; also called exogenous PTEN; pcDNA3-HA-PTEN; not shown: HA tag
Turning to B1, the binding result in series [1], in series [2], in series [3], in [4] and in [5] was “binds” throughout.

B2: N-terminal PTEN (1-187) (enzyme, not shown: small tags and cut ends)
chain: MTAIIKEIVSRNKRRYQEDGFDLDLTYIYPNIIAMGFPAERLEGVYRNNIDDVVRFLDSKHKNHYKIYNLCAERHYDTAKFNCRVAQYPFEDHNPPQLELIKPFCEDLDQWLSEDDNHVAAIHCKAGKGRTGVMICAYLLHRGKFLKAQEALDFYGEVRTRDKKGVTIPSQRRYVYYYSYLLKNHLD
On to B2, for which the binding result in the series with Flag-WWP1 [6] is “no binding”.

B3: PTEN K342/K344R mutant (enzyme, not shown: small tags and cut ends)
chain: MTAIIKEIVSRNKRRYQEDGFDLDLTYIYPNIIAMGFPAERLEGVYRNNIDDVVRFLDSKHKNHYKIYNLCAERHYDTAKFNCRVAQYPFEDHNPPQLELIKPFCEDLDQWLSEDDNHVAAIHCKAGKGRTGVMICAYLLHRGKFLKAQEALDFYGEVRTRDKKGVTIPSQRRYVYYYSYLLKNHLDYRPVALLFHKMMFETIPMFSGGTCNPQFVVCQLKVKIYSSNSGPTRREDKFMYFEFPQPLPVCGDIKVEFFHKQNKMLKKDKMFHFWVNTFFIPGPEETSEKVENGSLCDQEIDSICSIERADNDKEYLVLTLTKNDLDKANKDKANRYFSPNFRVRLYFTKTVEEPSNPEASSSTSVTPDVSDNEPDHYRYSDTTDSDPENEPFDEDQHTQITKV
notes: also called Myc-PTEN K342/K344R mutant; PTEN K342/K344R ubiquitination defective mutant
Take B3: the binding result in series [7] is on record as “binds”.

B4: PTEN 4E mutant (enzyme)
chain: B3 chain with R342K, R344K, S380E, T382E, T383E, S385E
notes: also called pcDNA3-Myc-PTEN 4E; phosphomimetic 4E; not shown: Myc tag by the plasmid list
As for B4, the binding result in the series with Flag-WWP1 [8] is reported as “no binding”.

B5: Myc-PTEN (enzyme)
chain: not shown
notes: also called pcDNA3-Myc-PTEN; not shown: Myc tag
Take B5: the binding result in series [9] is recorded as “no binding”.
